Results reported in publication PMC13061415.

What was measured:
[1] = target: Wdr26 (102–641) (mouse) (UniProt Q8C6G8); test: ITC; competition: RanBP9-Twa1 or RanBP10-Twa1 complex (160 μM) titrated into pre-formed Twa1_52-muskelin or Twa1_52-Wdr26 complex (16 μM); 25°C; competitive binding model with the parameters of the first titration
[2] = target: muskelin (1–735) (rat) (UniProt Q99PV3); test: as above
[3] = target: muskelin CTLH-CRA domain (205–735 Δ248–625) (UniProt Q99PV3); test: ITC; conditions: 160 µM muskelin + 16 µM RanBP10
[4] = target: muskelin CTLH-CRA domain (205–735 Δ248–625) (UniProt Q99PV3); test: ITC; conditions: for other: -TΔS / dG / other: ΔH: read off a plot
[5] = target: RanBP10 CTLH-CRA domain Q519G (mouse); test: SEC-MALS; RanBP10 Q519G (Q547G) dilution series; molar masses of 0.3 ml peak fractions against concentration, one-site binding fit; dimer to monomers
[6] = target: Maea CTLH-CRA domain (156-279) (mouse) (UniProt Q4VC33); test: SEC-MALS; purified CTLH-CRA domains alone or mixed (RanBP10 and Twa1 variants with Maea or muskelin), final concentration 250 μM, Superdex 75 10/300 GL
[7] = target: RanBP10 CTLH-CRA domain (315–608, Δ382–529), wild type (mouse); test: ITC; muskelin CTLH-CRA (160 μM, syringe) titrated into RanBP10 or Twa1 CTLH-CRA variants (16 μM, cell); 25°C; 20 mM tricine pH 8.0, 500 mM NaCl, 1 mM TCEP; one-site model
[8] = target: RanBP10 CTLH-CRA domain (315–608, Δ382–529), wild type; test: ITC; conditions: 160 µM muskelin + 16 µM RanBP10
[9] = target: RanBP10 CTLH-CRA domain (315–608, Δ382–529), wild type; test: ITC; conditions: 160 µM muskelin + 16 µM RanBP10; remark: listed apart in the source
[10] = target: RanBP10 CTLH-CRA domain (315–608, Δ382–529), wild type (mouse); test: SEC-MALS; CTLH-CRA domain complexes co-expressed in E. coli and purified as complexes; Superdex 75 10/300 GL; 20 mM tricine pH 8.0, 500 mM NaCl, 1 mM TCEP
[11] = 160 µM muskelin + 16 µM RanBP10 mutants
[12] = 160 µM muskelin + 16 µM RanBP10 mutants, parent: est. 4.1 kcal/mol
[13] = 160 µM muskelin + 16 µM RanBP10 mutants, parent: est. -11 kcal/mol
[14] = 160 µM muskelin + 16 µM RanBP10 mutants, parent: est. -16 kcal/mol
[15] = 160 µM muskelin + 16 µM Twa1 mutants

Chain of Maea CTLH-CRA domain (156-279) (mouse) (Q4VC33 156-279): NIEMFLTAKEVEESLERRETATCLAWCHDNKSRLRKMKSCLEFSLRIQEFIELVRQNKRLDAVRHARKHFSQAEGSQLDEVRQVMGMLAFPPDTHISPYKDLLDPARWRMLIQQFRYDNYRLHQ
Chain of Wdr26 (102–641) (mouse) (Q8C6G8 102-641): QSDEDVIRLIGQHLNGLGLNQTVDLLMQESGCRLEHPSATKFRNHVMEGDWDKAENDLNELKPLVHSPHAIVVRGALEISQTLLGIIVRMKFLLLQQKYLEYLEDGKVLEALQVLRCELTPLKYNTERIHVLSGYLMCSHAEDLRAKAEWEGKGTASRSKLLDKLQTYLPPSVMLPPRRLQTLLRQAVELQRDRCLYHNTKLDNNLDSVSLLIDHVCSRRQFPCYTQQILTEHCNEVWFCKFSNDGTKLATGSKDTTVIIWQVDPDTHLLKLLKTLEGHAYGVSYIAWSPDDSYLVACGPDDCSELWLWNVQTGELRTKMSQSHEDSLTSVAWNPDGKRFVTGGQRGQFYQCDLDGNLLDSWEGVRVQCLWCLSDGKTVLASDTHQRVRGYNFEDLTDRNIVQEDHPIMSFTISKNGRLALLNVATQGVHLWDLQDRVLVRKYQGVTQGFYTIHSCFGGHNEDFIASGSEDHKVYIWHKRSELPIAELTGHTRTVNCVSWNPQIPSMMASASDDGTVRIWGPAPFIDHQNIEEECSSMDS

Row | Substance | Kd [3] | Kd [4, 11] | other: molar ratio n [4, 11] | other: -TΔS [4, 12] | dG [4, 13] | other: ΔH [4, 14] | other results
1 | RanBP10 (57–648)-Twa1 (1–228) complex (from UniProt Q9D7M1 1-228) | – | – | – | – | – | – | Kd [1]: 0.0623 nM; Kd [2]: 0.07 nM
2 | RanBP10 CTLH-CRA domain (315–608, Δ382–529), wild type F543L | 83.7 nM | 83.7 nM | 0.88 | -0.7 kcal/mol | -9.6 kcal/mol | -8.8 kcal/mol | –
3 | RanBP10 CTLH-CRA domain (315–608, Δ382–529), wild type F543L; V556F | 338 nM | 338 nM | 0.98 | -0.5 kcal/mol | -8.9 kcal/mol | -8.4 kcal/mol | –
4 | RanBP10 CTLH-CRA domain (315–608, Δ382–529), wild type F543L; Y548F | 390 nM | 390 nM | 0.91 | -3.3 kcal/mol | -8.8 kcal/mol | -5.4 kcal/mol | –
5 | RanBP10 CTLH-CRA domain (315–608, Δ382–529), wild type Q519G | – | 8.49 nM | 0.93 | 4.1 kcal/mol | -11 kcal/mol | -15 kcal/mol | –
6 | RanBP10 CTLH-CRA domain (315–608, Δ382–529), wild type V556F | – | – | 0.8 | 5 kcal/mol | -11 kcal/mol | -16 kcal/mol | –
7 | RanBP10 CTLH-CRA domain (315–608, Δ382–529), wild type Y548F | 54.8 nM | 54.8 nM | 1.06 | 1.9 kcal/mol | -10 kcal/mol | -12 kcal/mol | –
8 | RanBP10 CTLH-CRA domain (315–608, Δ382–529), wild type Y548F; V556F | 298 nM | 298 nM | 0.95 | -0.6 kcal/mol | -9 kcal/mol | -8.3 kcal/mol | –
9 | RanBP10 CTLH-CRA domain Q519G (domain or fragment) | – | – | – | – | – | – | Kd [5]: 18000 nM; stoichiometry N [6]: 1
10 | RanBP10 CTLH-CRA domain Q519G, F543L, Y548F, V556F (quadruple mutant) (from UniProt Q6VN19 315-608) (domain or fragment) | – | – | – | – | – | – | stoichiometry N [6]: 1
11 | Twa1 CTLH-CRA domain (58-190), wild type (from UniProt Q9D7M1) A125G; Q126R; T127del; A130Q; L140K; M143L; E144K; L147F; F152Y | – | – | – | – | – | – | Kd [4, 15]: 795 nM; other: molar ratio n [4, 15]: 0.94; dG [4, 15]: -8.3 kcal/mol; other: -TΔS [4, 15]: -0.4 kcal/mol; other: ΔH [4, 15]: -7.9 kcal/mol
12 | Twa1 CTLH-CRA domain (58-190), wild type (from UniProt Q9D7M1) A125G; Q126R; T127del; Q128E; A130Q; L140K; M143L; E144Q; L147F; A148S; F152Y; F160V | – | – | – | – | – | – | Kd [4, 15]: 247 nM; other: molar ratio n [4, 15]: 1.05; dG [4, 15]: -9 kcal/mol; other: -TΔS [4, 15]: 4.3 kcal/mol; other: ΔH [4, 15]: -13 kcal/mol
13 | Twa1 CTLH-CRA domain (58-190), wild type (from UniProt Q9D7M1) A125G; Q126R; T127del; Q128E; A130Q; M143L; E144Q; L147F; A148S; F152Y | – | – | – | – | – | – | Kd [4, 15]: 354 nM; other: molar ratio n [4, 15]: 0.95; dG [4, 15]: -8.8 kcal/mol; other: -TΔS [4, 15]: 3.4 kcal/mol; other: ΔH [4, 15]: -12 kcal/mol
14 | muskelin CTLH-CRA domain (205–735 Δ248–625) (from UniProt Q99PV3 205-735) (domain or fragment) | – | – | – | – | – | – | Kd [7]: 4.33 nM
15 | muskelin CTLH-CRA domain (205–735 Δ248–625) (from UniProt Q99PV3) F686L | – | – | – | – | – | – | Kd [8]: 56.7 nM; Kd [9]: 56.7 nM; other: molar ratio n [9]: 1.07; other: -TΔS ([9]; parent: est. 4.1 kcal/mol, read off a plot): -1.6 kcal/mol; dG ([9]; parent: est. -11 kcal/mol, read off a plot): -9.9 kcal/mol; other: ΔH ([9]; parent: est. -16 kcal/mol, read off a plot): -8.2 kcal/mol
16 | muskelin CTLH-CRA domain, C-terminally shortened (205–719, Δ248–624) (from UniProt Q99PV3 205-719) (domain or fragment) | – | – | – | – | – | – | stoichiometry N [10]: 1
